{"source": "paper PMC12875140", "about": "(Nature microbiology, 2026)", "molecules": {"B1": {"name": "λ gpE major capsid protein (natural protein, phage λ, UniProt P03713 1-341, looked up)", "chain": "MSMYTTAQLLAANEQKFKFDPLFLRLFFRESYPFTTEKVYLSQIPGLVNMALYVSPIVSGEVIRSRGGSTSEFTPGYVKPKHEVNPQMTLRRLPDEDPQNLADPAYRRRRIIMQNMRDEELAIAQVEEMQAVSAVLKGKYTMTGEAFDPVEVDMGRSEENNITQSGGTEWSKRDKSTYDPTDDIEAYALNASGVVNIIVFDPKGWALFRSFKAVKEKLDTRRGSNSELETAVKDLGKAVSYKGMYGDVAIVVYSGQYVENGVKKNFLPDNTMVLGNTQARGLRTYGCIQDADAQREGINASARYPKNWVTTGDPAREFTMIQSAPLMLLADPDEFVSVQLA"}}, "key": {"[1]": {"target": "6×-His-SUMO-Avs8A (E. coli ECOR07) (UniProt B7LDL1)", "assay": "MST"}, "[2]": {"target": "6×-His-SUMO-Avs8A (E. coli ECOR07) (UniProt B7LDL1)", "assay": "mass photometry", "details": "scale: Bas21 mcp monomers per four Avs8 monomers"}, "6×-His-SUMO-Avs8A": {"target": "T1, 6×-His-SUMO-Avs8A (E. coli ECOR07, UniProt B7LDL1 1-1283)", "T1 sequence (looked up)": "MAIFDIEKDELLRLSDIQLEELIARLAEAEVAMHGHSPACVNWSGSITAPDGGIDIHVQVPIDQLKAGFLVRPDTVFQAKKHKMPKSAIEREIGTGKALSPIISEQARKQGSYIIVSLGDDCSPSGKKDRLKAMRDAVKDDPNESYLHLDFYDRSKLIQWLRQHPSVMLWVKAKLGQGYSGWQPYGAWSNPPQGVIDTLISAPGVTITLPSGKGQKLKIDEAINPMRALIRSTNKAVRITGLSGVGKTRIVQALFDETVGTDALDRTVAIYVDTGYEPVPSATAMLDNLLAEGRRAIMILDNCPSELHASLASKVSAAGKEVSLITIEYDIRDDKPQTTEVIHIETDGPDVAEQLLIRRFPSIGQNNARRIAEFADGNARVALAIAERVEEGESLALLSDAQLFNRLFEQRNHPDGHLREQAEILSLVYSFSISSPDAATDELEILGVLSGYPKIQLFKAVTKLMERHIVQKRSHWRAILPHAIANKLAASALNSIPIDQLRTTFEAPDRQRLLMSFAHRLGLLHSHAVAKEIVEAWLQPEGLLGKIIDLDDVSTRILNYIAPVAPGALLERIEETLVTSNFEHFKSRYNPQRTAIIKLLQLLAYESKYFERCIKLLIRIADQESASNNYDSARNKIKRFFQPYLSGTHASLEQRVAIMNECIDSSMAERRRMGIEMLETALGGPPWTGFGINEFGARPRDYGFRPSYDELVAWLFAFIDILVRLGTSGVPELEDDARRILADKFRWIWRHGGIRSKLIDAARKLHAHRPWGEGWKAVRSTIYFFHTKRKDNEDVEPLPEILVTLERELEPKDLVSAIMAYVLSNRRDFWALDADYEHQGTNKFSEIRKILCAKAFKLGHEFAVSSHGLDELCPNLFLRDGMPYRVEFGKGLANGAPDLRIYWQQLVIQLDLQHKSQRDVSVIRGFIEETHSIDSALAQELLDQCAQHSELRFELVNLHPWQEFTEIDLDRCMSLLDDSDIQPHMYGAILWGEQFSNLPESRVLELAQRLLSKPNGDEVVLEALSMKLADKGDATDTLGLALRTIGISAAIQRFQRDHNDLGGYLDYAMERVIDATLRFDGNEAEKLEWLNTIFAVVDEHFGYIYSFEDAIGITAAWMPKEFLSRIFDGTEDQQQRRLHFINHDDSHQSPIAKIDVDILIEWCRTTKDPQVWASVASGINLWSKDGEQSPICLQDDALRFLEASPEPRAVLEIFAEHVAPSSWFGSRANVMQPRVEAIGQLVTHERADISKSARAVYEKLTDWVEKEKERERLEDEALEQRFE", "assay": "MST"}}}
{"molecule": "Bas21 major capsid protein (natural protein)", "values": [{"measurement": "Kd", "setting": "[1]", "result": 0.012, "unit": "µM"}, {"measurement": "stoichiometry N", "setting": "[2]", "result": 2}]}
{"molecule": "B1", "values": [{"measurement": "Kd", "setting": "6×-His-SUMO-Avs8A", "result": 0.124, "unit": "µM"}]}
